Patent US20210246223A1 (CRD PHARMACEUTICALS, published 2021)

Columns and labels:
[1] = biological target: T1, extracellular domain of HER3 (human, UniProt P21860 20-643); test: SPR (Biacore 3000), HER3 extracellular domain amine-coupled on CM5, 29Z6 mAb 0.1-300 nM as analyte, 1:1 model, 25° C.
T1 construct: extracellular domain; also called purified extracellular domain of HER3; HER3 receptor ectodomain
Procedure: (§1) The binding kinetics of the 29Z6 mAb was analysed by surface plasmon resonance (SPR) using a Biacore3000 optical sensor platform equipped with research-grade CM5 sensor (GE Healthcare Bio-Sciences Corp., Piscataway, N.J.). Purified extracellular domain of HER3 was immobilized on the sensor chip surface of a carboxylated dextran-coated gold film using the standard amine coupling kit following the manufacturer's protocol. Briefly, 70 μL of a mixed solution of NHS/EDC (1:1, v/v) was injected to activate the carboxylated dextran, followed by manual injection of protein in 10 mM NaOAc (pH 4.5) until the desired surface density was reached. Ethanolamine 1 M in water (pH 8.5) was then injected to de-activate residual NHS-esters on the sensor chip. […] Kinetic data were evaluated by globally fitting the sensorgrams to a simple 1:1 interaction model using the Biacore software BiaEvaluation version 4.1 (GE Healthcare Bio-Sciences Corp.). The equilibrium KDs were determined from the resulting kinetic association and dissociation rates (kd/ka), and a minimum of nine independent runs were used to generate the reported standard deviations. A 1:1 binding model was used together with experimentally determined RMax as fixed parameter to determine association rate constant (ka), dissociation rate constant (kd), and equilibrium dissociation constant (KD). […]

EGFR = biological target: T2, EGFR (UniProt P00533 25-645, limits assumed); test: ELISA, plate coated with 1 µg/ml EGFR, increasing concentration of 29Z6
T2 construct: Coated on the ELISA plate at 1 µg/ml and also used in the western blot; also called HER1; ErbB1
Procedure: (§2) ELISA plate was coated with 1 μg/ml of EGFR, HER2, or extracellular domain of HER3. The ELISA was incubated with increasing concentration of 29Z6 followed by incubation with HRP-goat-anti mouse IgG to detect 29Z6 antibody binding. […] Confirmation of the binding specificity was undertaken using western blotting. Only HER3 was bound to 29Z6 while EGFR or HER2 didn't (FIG. 10).

HER2 = biological target: T3, HER2 (UniProt P04626 23-652, limits assumed); test: ELISA, plate coated with 1 µg/ml HER2, increasing concentration of 29Z6
T3 construct: Coated on the ELISA plate at 1 µg/ml and also used in the western blot; also called ErbB2; Neu
Procedure: as §2

[2] = biological target: T1, extracellular domain of HER3; test: SPR (Biacore 3000), HER3 extracellular domain amine-coupled on CM5, 29Z6 mAb as analyte, 1:1 model, 25° C.
Procedure: as §1

[3] = biological target: T4, HER3-Fc fusion comprising the extracellular domain (aa 20-643) of human HER3 (human, UniProt P21860 20-643); test: ELISA, HER3-Fc coated at 1 µg/ml, serial dilution of IgG 29Z6, anti-mouse Fc-HRP detection
T4 construct: range 20-643; also called human HER3-Fc fusion protein
Procedure: Antigen binding of IgG 29Z6 was analyzed in ELISA using immobilized HER3-Fc fusion comprising the extracellular domain (aa 20-643) of human HER3. The HER3-Fc fusion protein was coated onto polystyrene microtiter plates at 1 μg/ml in PBS. Remaining binding sites were blocked with PBS, 2% skimmed milk (MPBS). Plates were then incubated with a serial dilution of IgG 29Z6 in MPBS. After washing, bound antibody was detected with an HRP-conjugated anti-mouse Fc antibody and TMB, H₂O₂ as substrate.

T1 sequence (P21860 20-643): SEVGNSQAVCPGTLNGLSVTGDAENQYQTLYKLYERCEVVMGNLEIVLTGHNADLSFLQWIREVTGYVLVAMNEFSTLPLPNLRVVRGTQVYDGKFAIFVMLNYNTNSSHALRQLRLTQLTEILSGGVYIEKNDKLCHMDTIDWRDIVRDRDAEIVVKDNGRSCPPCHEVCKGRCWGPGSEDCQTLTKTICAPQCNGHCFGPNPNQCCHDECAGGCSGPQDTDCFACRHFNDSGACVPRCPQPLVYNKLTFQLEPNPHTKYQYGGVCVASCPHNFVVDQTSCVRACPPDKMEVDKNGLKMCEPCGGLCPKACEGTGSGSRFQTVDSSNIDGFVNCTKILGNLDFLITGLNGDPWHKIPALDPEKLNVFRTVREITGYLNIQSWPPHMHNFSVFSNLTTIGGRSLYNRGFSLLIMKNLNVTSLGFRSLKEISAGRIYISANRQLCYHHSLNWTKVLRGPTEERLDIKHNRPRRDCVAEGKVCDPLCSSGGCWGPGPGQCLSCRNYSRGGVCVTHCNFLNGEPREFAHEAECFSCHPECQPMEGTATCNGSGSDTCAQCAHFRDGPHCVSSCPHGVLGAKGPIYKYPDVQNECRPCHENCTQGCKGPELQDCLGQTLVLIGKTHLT
T4 sequence (P21860 20-643 limits assumed): as the sequence (P21860 20-643) above

B1: anti-HER3 monoclonal antibody 29Z6 (antibody, mouse IgG2a, kappa, V domains shown)
VH: EVQLQESGPSLVKPSQTLSLTCYVTGDSITSGYWNWIRKFPGNKLEYMGYINYSGSTYYNPSLKSRISIIRDTSQNHYNLLLNSVTTEDTATYYCARLGTYYRYAGAMDYWGQGTSVTVSS
VL: DDVLTQTPLSLPVSLGDQASISCRSSQSLVHSNGNTYLHWYLQKPGQSPKLLIYKVSNRFSGVPDRFSGSGSGTDFTLKISRVEAEDLGVYFCSQSTHVPYTFGGGTKLEIKR
notes: also called IgG 29Z6; 29Z6 mAb
Kd [1]: 0.8 nM | binding result (EGFR): no binding | binding result (HER2): no binding | koff [2]: 0.000295 s⁻¹ | kon [2]: 188000 M⁻¹ s⁻¹ | EC50 [3]: 0.88 nM
